# In US20200262877A1, “ION CHANNEL-BINDING PEPTIDES AND METHODS OF USE THEREOF” (priority 2017, published 2020):
# Experiments:
# [1] = system: GABA; test: Ion channel panel (IonWorks Barracuda): GABA; type: cell-based; details: 100% = no change, <100% = inhibition
# In short: (§1)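 Peptides were tested in duplicate at final 20 μM and 200 nM, with concentration set by amino acid analysis, in HEPES-buffered saline. They were applied for at least 5 min to HEK293 or CHO cells transfected with each channel. Currents were expressed as % inhibition, 1-(Ipeptide/Icontrol)×100, or % activation, Ipeptide/Icontrol×100, against a channel-matched reference compound.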
# [2] = biological target: T1, 5HT3a (Homo sapiens, UniProt P46098); test: Ion channel panel (IonWorks Barracuda): 5HT3a; type: cell-based
# T1 construct: host or cells: HEK293 or CHO
# T1 sequence (P46098 whole entry, looked up): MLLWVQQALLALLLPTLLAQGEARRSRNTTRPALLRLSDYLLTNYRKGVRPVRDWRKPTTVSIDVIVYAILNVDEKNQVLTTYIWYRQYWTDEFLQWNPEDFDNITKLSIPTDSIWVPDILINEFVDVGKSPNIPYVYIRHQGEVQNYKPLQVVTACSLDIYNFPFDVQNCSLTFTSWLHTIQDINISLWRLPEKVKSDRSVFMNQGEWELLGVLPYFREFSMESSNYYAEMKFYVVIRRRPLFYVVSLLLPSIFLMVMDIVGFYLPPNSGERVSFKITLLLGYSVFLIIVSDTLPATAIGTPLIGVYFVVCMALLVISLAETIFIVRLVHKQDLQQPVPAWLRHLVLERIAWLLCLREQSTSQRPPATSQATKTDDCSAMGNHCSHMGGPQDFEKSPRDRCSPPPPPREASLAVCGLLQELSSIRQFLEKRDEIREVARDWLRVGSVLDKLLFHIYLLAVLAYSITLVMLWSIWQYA
# In short: as §1
# [3] = biological target: T2, Cav2.1 (Homo sapiens, UniProt O00555); test: cell-based; details: 100% = no change, <100% = inhibition
# T2 construct: host or cells: HEK293 or CHO
# In short: as §1
# [4] = biological target: T3, Kv2.1 (Homo sapiens, UniProt Q14721); test: cell-based; details: 100% = no change, <100% = inhibition
# T3 construct: host or cells: HEK293 or CHO
# In short: as §1
# [5] = biological target: T4, Cav2.2 (Homo sapiens, UniProt Q00975); test: cell-based; details: 100% = no change, <100% = inhibition
# T4 construct: host or cells: HEK293 or CHO
# In short: as §1
# [6] = biological target: T5, α3β4 (Homo sapiens, UniProt P30926+P32297); test: Ion channel panel (IonWorks Barracuda): α3β4; type: cell-based; details: 100% = no change, <100% = inhibition
# T5 construct: host or cells: HEK293 or CHO
# In short: as §1
# [7] = biological target: Nav1.5 (Homo sapiens, UniProt Q14524); test: in vitro; details: 100% = no change; for Activity of Nav1.5 with peptide, expressed as a percentage of the reference compound: peptide at 0.2 μM; for Activity of Nav1.5 with peptide (percentage of the reference compound): peptide at 20 μM
# Sequence of Nav1.5 (Q14524 whole entry): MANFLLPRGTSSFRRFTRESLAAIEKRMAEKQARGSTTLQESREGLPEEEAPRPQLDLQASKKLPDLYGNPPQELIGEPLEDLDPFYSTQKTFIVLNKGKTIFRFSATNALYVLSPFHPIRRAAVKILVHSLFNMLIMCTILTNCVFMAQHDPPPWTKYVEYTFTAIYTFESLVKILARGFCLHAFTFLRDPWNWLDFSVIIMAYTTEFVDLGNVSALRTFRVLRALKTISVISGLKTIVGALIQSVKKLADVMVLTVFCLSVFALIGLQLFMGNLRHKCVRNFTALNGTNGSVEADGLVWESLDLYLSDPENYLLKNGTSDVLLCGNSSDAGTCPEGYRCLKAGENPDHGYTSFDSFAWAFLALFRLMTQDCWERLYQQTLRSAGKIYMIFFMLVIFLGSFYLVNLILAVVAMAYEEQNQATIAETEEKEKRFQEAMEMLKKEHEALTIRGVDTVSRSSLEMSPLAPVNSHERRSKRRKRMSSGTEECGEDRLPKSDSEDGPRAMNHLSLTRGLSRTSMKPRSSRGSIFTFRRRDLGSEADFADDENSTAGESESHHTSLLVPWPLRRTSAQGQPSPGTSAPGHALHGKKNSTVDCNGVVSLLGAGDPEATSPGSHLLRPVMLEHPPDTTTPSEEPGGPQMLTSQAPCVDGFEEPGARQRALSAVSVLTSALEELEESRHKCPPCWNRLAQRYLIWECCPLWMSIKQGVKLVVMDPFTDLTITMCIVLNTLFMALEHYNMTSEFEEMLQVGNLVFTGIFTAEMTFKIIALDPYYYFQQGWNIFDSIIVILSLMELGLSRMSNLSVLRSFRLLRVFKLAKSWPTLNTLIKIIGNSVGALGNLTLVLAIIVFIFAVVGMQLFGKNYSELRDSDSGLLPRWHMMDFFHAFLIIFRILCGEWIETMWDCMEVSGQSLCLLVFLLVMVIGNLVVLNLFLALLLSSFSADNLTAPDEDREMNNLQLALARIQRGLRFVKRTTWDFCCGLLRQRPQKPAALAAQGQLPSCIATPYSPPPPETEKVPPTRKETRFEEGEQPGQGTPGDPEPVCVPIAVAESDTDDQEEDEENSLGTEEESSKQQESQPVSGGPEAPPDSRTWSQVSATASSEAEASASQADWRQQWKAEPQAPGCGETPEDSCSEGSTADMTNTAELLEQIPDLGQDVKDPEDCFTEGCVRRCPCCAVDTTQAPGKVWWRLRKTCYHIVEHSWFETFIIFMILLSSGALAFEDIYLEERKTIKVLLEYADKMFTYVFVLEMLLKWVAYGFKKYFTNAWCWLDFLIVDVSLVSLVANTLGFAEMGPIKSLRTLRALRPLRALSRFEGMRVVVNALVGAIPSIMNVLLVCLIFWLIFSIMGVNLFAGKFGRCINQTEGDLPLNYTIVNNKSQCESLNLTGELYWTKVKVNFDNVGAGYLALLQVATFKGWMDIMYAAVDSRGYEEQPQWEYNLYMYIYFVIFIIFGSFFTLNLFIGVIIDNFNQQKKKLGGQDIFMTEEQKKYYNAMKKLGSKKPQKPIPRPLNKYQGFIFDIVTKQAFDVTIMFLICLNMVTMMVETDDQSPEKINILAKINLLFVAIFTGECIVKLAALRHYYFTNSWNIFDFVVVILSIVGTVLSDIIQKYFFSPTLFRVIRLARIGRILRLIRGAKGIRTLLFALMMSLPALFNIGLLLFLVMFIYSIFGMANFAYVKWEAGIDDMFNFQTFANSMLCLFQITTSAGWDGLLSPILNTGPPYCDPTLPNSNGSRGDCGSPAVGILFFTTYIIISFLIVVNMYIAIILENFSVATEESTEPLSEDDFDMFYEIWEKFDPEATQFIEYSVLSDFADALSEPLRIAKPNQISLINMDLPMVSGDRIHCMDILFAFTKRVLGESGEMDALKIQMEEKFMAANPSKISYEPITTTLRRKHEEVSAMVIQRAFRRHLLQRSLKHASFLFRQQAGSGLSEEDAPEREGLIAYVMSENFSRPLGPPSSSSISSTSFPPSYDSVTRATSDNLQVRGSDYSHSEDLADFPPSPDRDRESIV
# In short: as §1
# [8] = biological target: hERG (Homo sapiens, UniProt Q12809); test: in vitro; details: 100% = no change, <100% = inhibition
# In short: as §1
# [9] = biological target: T6, TRPV1 (Homo sapiens, UniProt Q8NER1); test: Ion channel panel (IonWorks Barracuda): TRPV1; type: cell-based; details: 100% = no change, <100% = inhibition
# T6 construct: host or cells: HEK293 or CHO
# In short: as §1
# [10] = biological target: T7, NR2A (Homo sapiens, UniProt Q12879); test: Ion channel panel (IonWorks Barracuda): NR2A; type: cell-based; details: 100% = no change, <100% = inhibition
# T7 construct: host or cells: HEK293 or CHO
# In short: as §1
# [11] = biological target: T8, Kir2.1 (Homo sapiens, UniProt P63252); test: Ion channel panel (IonWorks Barracuda): Kir2.1; type: cell-based; details: 100% = no change, <100% = inhibition
# T8 construct: host or cells: HEK293 or CHO
# T8 sequence (P63252 whole entry): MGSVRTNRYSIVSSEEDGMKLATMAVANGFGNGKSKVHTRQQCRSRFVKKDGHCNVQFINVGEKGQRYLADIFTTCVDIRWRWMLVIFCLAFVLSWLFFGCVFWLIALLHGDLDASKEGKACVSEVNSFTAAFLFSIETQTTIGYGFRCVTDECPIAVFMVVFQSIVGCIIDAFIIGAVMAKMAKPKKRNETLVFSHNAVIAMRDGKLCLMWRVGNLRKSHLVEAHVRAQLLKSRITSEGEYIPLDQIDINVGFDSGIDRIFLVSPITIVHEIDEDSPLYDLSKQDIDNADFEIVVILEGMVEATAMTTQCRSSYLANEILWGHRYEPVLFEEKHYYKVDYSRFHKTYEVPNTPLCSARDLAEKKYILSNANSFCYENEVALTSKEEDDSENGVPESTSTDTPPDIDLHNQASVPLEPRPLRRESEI
# In short: as §1
# [12] = biological target: T9, Nav1.7 (Homo sapiens, UniProt Q15858); test: cell-based; type: cell-based; details: 100% = no change; for Activity of Nav1.7 with peptide, expressed as a percentage of the reference compound: peptide at 0.2 μM; for Activity of Nav1.7 with peptide (percentage of the reference compound): peptide at 20 μM
# T9 construct: host or cells: HEK293 or CHO
# T9 sequence (Q15858 whole entry): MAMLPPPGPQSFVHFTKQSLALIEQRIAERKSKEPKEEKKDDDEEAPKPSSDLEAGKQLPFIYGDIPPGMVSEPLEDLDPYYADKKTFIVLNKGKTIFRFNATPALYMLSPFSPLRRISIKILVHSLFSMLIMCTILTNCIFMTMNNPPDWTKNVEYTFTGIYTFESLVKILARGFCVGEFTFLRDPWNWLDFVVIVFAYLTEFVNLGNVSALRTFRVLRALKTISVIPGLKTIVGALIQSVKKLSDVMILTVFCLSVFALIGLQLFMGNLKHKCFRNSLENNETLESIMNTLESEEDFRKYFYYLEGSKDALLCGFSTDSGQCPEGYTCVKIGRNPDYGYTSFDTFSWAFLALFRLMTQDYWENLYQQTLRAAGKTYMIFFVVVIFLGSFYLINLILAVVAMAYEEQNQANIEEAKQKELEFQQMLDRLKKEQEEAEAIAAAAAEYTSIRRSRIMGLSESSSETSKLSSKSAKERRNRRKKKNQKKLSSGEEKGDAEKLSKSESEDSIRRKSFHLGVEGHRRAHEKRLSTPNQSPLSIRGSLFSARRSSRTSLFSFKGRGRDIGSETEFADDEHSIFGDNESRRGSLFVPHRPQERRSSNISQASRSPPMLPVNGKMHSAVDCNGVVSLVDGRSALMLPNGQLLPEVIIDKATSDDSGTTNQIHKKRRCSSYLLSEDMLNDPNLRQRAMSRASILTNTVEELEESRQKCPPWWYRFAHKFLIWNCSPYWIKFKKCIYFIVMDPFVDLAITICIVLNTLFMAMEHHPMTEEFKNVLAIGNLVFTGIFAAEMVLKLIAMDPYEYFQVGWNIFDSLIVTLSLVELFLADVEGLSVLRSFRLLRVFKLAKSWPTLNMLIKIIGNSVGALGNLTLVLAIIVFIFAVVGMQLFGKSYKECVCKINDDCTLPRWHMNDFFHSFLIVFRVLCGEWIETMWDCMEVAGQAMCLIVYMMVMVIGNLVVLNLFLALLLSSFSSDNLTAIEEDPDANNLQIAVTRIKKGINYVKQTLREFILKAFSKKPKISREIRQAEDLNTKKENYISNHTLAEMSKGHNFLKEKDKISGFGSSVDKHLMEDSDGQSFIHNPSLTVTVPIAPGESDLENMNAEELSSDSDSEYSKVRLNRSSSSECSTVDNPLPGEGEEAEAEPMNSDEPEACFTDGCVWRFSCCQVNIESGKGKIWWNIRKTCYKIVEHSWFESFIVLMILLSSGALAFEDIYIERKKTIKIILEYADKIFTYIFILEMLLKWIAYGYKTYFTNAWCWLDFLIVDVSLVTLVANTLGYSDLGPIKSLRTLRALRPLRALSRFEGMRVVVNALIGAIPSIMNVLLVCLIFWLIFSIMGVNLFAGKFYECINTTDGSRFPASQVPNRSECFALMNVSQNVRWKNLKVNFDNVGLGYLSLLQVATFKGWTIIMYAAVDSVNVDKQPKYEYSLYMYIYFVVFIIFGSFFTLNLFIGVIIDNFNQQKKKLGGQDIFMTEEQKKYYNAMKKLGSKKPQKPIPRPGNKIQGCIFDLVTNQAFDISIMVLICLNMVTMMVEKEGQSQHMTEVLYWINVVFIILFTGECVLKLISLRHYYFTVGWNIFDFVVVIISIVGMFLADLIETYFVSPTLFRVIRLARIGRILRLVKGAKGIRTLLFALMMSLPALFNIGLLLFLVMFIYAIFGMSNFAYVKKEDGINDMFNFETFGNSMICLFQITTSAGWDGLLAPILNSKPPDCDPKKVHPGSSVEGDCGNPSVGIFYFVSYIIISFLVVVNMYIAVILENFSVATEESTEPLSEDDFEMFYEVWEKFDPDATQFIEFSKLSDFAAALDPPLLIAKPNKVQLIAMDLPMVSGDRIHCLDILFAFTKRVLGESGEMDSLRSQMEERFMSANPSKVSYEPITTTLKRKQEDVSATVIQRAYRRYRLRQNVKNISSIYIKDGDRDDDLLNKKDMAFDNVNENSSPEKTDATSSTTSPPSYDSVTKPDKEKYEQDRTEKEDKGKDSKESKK
# [13] = biological target: T10, TRPA1 (Homo sapiens, UniProt O75762); test: Ion channel panel (IonWorks Barracuda): TRPA1; type: cell-based; details: 100% = no change, <100% = inhibition
# T10 construct: host or cells: HEK293 or CHO
# In short: as §1
# [14] = biological target: T11, NR2B (Homo sapiens, UniProt Q13224); test: Ion channel panel (IonWorks Barracuda): NR2B; type: cell-based; details: 100% = no change, <100% = inhibition
# T11 construct: host or cells: HEK293 or CHO
# In short: as §1
# [15] = biological target: T12, Kv1.1 (Homo sapiens, UniProt Q09470); test: cell-based; type: cell-based; details: 100% = no change, <100% = inhibition
# T12 construct: host or cells: HEK293 or CHO
# T12 sequence (Q09470 whole entry): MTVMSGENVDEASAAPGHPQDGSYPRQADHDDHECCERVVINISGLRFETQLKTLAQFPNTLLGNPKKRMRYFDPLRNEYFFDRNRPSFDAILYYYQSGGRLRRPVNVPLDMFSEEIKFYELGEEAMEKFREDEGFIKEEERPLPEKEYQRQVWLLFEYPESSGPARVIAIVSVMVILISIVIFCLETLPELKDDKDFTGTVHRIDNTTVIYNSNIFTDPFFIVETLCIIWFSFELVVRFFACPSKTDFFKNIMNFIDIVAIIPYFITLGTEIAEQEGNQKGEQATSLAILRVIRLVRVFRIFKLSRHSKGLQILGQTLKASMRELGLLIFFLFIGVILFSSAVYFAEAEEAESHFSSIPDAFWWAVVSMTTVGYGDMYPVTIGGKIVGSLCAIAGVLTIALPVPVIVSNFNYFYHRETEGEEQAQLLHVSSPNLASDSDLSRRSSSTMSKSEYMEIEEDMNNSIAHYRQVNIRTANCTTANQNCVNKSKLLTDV
# In short: as §1
# [16] = biological target: T13, Kv1.3 (Homo sapiens, UniProt P22001); test: cell-based; type: cell-based; details: 100% = no change, <100% = inhibition
# T13 construct: host or cells: HEK293 or CHO
# In short: as §1
# [17] = biological target: T14, Kv1.2 (Homo sapiens, UniProt P16389); test: cell-based; type: cell-based; details: 100% = no change, <100% = inhibition
# T14 construct: host or cells: HEK293 or CHO
# In short: as §1
# [18] = biological target: T15, α4β2 (Homo sapiens, UniProt P17787+P43681); test: Ion channel panel (IonWorks Barracuda): α4β2; type: cell-based; details: 100% = no change, <100% = inhibition
# T15 construct: host or cells: HEK293 or CHO
# In short: as §1
# [19] = first of two Nav1.5 columns (probably TP1)
# [20] = second of two Nav1.5 columns (probably TP2)
# [21] = first of two Nav1.7 columns (probably TP1)
# [22] = second of two Nav1.7 columns (probably TP2)
substance,measurement,setting,value
34 (GGYSRCQLQGFNCVVRSYGLPTIPCCRGLTCRSYFPGSTYGRCQRY) [compound 34],"Activity of GABA with peptide, expressed as a percentage of the reference compound",[1]; peptide at 0.2 μM,107%
same,Activity of GABA with peptide (percentage of the reference compound),[1]; peptide at 20 μM,117%
same,Activity of 5HT3a with peptide (percentage of the reference compound),[2],97%
same,"Activity of 5HT3a with peptide, expressed as a percentage of the reference compound",[2],114%
same,"Activity of Cav2.1 with peptide, expressed as a percentage of the reference compound",[3]; peptide at 0.2 μM,86%
same,Activity of Cav2.1 with peptide (percentage of the reference compound),[3]; peptide at 20 μM,111%
same,"Activity of Kv2.1 with peptide, expressed as a percentage of the reference compound",[4]; peptide at 0.2 μM,98%
same,Activity of Kv2.1 with peptide (percentage of the reference compound),[4]; peptide at 20 μM,97%
same,"Activity of Cav2.2 with peptide, expressed as a percentage of the reference compound",[5]; peptide at 0.2 μM,130%
same,Activity of Cav2.2 with peptide (percentage of the reference compound),[5]; peptide at 20 μM,94%
same,"Activity of a3b4 with peptide, expressed as a percentage of the reference compound",[6]; peptide at 0.2 μM,103%
same,Activity of a3b4 with peptide (percentage of the reference compound),[6]; peptide at 20 μM,97%
same,"Activity of Nav1.5 with peptide, expressed as a percentage of the reference compound",[7]; [19],111%
same,"Activity of Nav1.5 with peptide, expressed as a percentage of the reference compound",[7]; [20],113%
same,Activity of Nav1.5 with peptide (percentage of the reference compound),[7]; [19],101%
same,Activity of Nav1.5 with peptide (percentage of the reference compound),[7]; [20],101%
same,"Activity of hERG with peptide, expressed as a percentage of the reference compound",[8]; peptide at 0.2 μM,84%
same,Activity of hERG with peptide (percentage of the reference compound),[8]; peptide at 20 μM,66%
same,"Activity of TRPV1 with peptide, expressed as a percentage of the reference compound",[9]; peptide at 0.2 μM,110%
same,Activity of TRPV1 with peptide (percentage of the reference compound),[9]; peptide at 20 μM,71%
same,"Activity of NR2A with peptide, expressed as a percentage of the reference compound",[10]; peptide at 0.2 μM,112%
same,Activity of NR2A with peptide (percentage of the reference compound),[10]; peptide at 20 μM,77%
same,"Activity of Kir2.1 with peptide, expressed as a percentage of the reference compound",[11]; peptide at 0.2 μM,97%
same,Activity of Kir2.1 with peptide (percentage of the reference compound),[11]; peptide at 20 μM,50%
same,"Activity of Nav1.7 with peptide, expressed as a percentage of the reference compound",[12]; [21],102%
same,"Activity of Nav1.7 with peptide, expressed as a percentage of the reference compound",[12]; [22],104%
same,Activity of Nav1.7 with peptide (percentage of the reference compound),[12]; [21],86%
same,Activity of Nav1.7 with peptide (percentage of the reference compound),[12]; [22],80%
same,"Activity of TRPA1 with peptide, expressed as a percentage of the reference compound",[13]; peptide at 0.2 μM,91%
same,Activity of TRPA1 with peptide (percentage of the reference compound),[13]; peptide at 20 μM,97%
same,"Activity of NR2B with peptide, expressed as a percentage of the reference compound",[14]; peptide at 0.2 μM,127%
same,Activity of NR2B with peptide (percentage of the reference compound),[14]; peptide at 20 μM,66%
same,"Activity of Kv1.1 with peptide, expressed as a percentage of the reference compound",[15]; peptide at 0.2 μM,109%
same,Activity of Kv1.1 with peptide (percentage of the reference compound),[15]; peptide at 20 μM,111%
same,"Activity of Kv1.3 with peptide, expressed as a percentage of the reference compound",[16]; peptide at 0.2 μM,108%
same,Activity of Kv1.3 with peptide (percentage of the reference compound),[16]; peptide at 20 μM,100%
same,"Activity of Kv1.2 with peptide, expressed as a percentage of the reference compound",[17]; peptide at 0.2 μM,96%
same,Activity of Kv1.2 with peptide (percentage of the reference compound),[17]; peptide at 20 μM,51%
same,"Activity of a4b2 with peptide, expressed as a percentage of the reference compound",[18]; peptide at 0.2 μM,81%
same,Activity of a4b2 with peptide (percentage of the reference compound),[18]; peptide at 20 μM,51%
